Data published in patent publication US20030059429A1 (published 2003).
Residue numbers refer to the chain shown, from its start.

T1: human IL-1α (human, UniProt P01583 113-271)
T1 sequence (looked up): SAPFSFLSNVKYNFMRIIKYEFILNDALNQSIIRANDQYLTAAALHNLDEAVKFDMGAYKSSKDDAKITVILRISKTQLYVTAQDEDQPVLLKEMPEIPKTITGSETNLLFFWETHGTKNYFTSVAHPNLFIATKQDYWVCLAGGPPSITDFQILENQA

T2: human IL-4 (human, UniProt P05112 25-153)
T2 sequence (looked up): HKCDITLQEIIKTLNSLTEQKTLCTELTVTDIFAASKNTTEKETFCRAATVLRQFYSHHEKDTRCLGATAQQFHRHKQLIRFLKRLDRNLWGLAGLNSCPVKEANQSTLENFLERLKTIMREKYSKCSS

T3: human M-CSF (human, UniProt P09603 33-190, limits assumed)
T3 sequence (looked up): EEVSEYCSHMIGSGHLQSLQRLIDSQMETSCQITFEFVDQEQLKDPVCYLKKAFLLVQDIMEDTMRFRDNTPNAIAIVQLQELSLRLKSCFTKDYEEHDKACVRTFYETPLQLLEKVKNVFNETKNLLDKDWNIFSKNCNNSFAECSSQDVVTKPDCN

B1: murine monoclonal antibody 2B6 (antibody, IgG1, V domains shown)
VH: QVQLKESGPGLVAPSQSLSITCTVSGFSLTSYSVHWVRQPPGKGLEWLGVIWASGGTDYNSALMSRLSISKDNSKSQVFLKLNSLQTDDTAMYYCARDPPSSLLRLDYWGQGTTLTVSS
VL: DIVMTQSPSSLSVSAGEKVTMSCKSSQSLLNSGNQKNYLAWYQQKPGQPPKLLIYGASTRESGVPDRFTGSGSGTDFTLSISSVQAEDLAVYYCQNVHSFPFTFGSGTELEIK
notes: also called mAb 2B6; murine 2B6
B2: Fab 2 from the chain-shuffled library (2B6 Fd with a library light chain) (Fab, V domains shown)
VH: B1 VH
VL: B1 VL with D1E, I2L, S80T, V97D, F100Y, E109K
notes: not shown: constant part of the murine 2B6 Fd (CH1) and any tag from pMKFabGene3H
B3: Fab 15 from the chain-shuffled library (2B6 Fd with a library light chain) (Fab, V domains shown)
VH: B1 VH
VL: B1 VL with D1E, I2L, S80T, V97D, H98Y, F100Y, E109K
notes: as for B2
B4: murine monoclonal antibody 2E3 (antibody, IgG2a, V domains shown)
VH: PGLVAPSQSLSITCTVSGFSLTSYSVHWVRQPPGKGLEWLGVIWASGGTDYNSALMSRLSISKDNSKSQVFLKLNSLQTDDAAMYYCARDPPFSLLRLDFWGQGTTLTVSS
VL: SSLSVSAGEKVTMSCKSSQSLLNSGNQKNYLAWYQQKPGQPPKLLIYGASTRESGVPDRFTGSGSGTDFTLTISSVQAEDLAVYYCQNDHSFPFTFGSGTELEIK
notes: also called mAb 2E3; hybridoma SK119-2E3.39.40.2
B5: murine monoclonal antibody 2F2 (antibody, V domains shown)
VH: B4 VH with Q78R, A82T, F93S, F100Y
VL: B4 VL
notes: also called mAb 2F2; hybridoma SK119-2F2.37.80.12

Columns and labels:
Recombinant human IL-5 [1] = target: T4, Recombinant human IL-5 (human, UniProt P05113 20-134, 125I label (Bolton-Hunter reagent) in the receptor binding inhibition assay and the colony lifts; residues not stated); assay: cell-based or functional assay
Recombinant human IL-5 [2] = target: T4, Recombinant human IL-5; assay: cell-based or functional assay; remark: listed apart in the source
human IL-1α = target: T1, human IL-1α; assay: ELISA, supernatants of the cloned lines
human IL-1β = human IL-1β (human, UniProt P01584 117-269); assay: ELISA, supernatants of the cloned lines
human IL-4 = target: T2, human IL-4; assay: ELISA, supernatants of the cloned lines
human IL-8 = human IL-8 (human, UniProt P10145 28-99, limits assumed); assay: ELISA, supernatants of the cloned lines
human M-CSF = target: T3, human M-CSF; assay: ELISA, supernatants of the cloned lines
human TGFα = human TGFα (human, UniProt P01135 40-89); assay: ELISA, supernatants of the cloned lines
Recombinant human IL-5 [3] = target: T4, Recombinant human IL-5; assay: optical biosensor (BIAcore), immobilized hIL-5, 25° C.
Recombinant human IL-5 [4] = target: T4, Recombinant human IL-5; assay: inhibition of 125I-IL-5 binding to IL-5R(α chain) from Drosophila membranes
Recombinant human IL-5 [5] = target: T4, Recombinant human IL-5; assay: colony lift assay with iodinated IL-5, chain shuffled library

Binder	inhibition of proliferation of murine B13 cells (Recombinant human IL-5 [1]) [%]	100% Inhibition (pM), B13 cell proliferation (Recombinant human IL-5 [2]) [pM]	Proliferation IC50 (pM), B13 cells (Recombinant human IL-5 [2]) [pM]	binding result (human IL-1α)	binding result (human IL-1β)	binding result (human IL-4)	binding result (human IL-8)	binding result (human M-CSF)	binding result (human TGFα)	Kd (Recombinant human IL-5 [3]) [nM]	IC50 (Recombinant human IL-5 [4]) [nM]	binding result (Recombinant human IL-5 [5])
B1	> 70	200	70	no binding	no binding	no binding	no binding	no binding	no binding	0.022	1	
B2												binds
B3												binds
B4	> 70	600	90	no binding	no binding	no binding	no binding	no binding	no binding	0.02	1	
B5	> 70	340	150	no binding	no binding	no binding	no binding	no binding	no binding	0.013	1	
